Results reported in patent publication US20140335192.

Columns and labels:
Assay in all cases: ITC
Details in all cases: 250 uM protein into 40 uM siRNA, unit of K not stated
[1] = tested on: PTD (protein transduction domain peptide)
[2] = tested on: DRBD-PTD chimera (RND-DRBD)
[3] = tested on: DRBD (double-stranded RNA binding domain)

For Luciferase siRNA, which Ka ([1]; Sorensen's phosphate buffer, enthalpy 14.03 kJ/mol) is on record?
Its Ka is 1.04e+07.

What about the Ka ([1]; deionized water, enthalpy 29.83 kJ/mol) of the same substance?
The Ka was 1e+10.

And the Ka ([2]; Sorensen's phosphate buffer, enthalpy 61.51 kJ/mol)?
Its Ka is 2.12e+07.

And the Ka ([2]; deionized water, enthalpy 98.92 kJ/mol)?
The Ka was 1e+10.

What about the Ka ([3]; Sorensen's phosphate buffer, enthalpy 1998.83 kJ/mol) of the same substance?
The Ka was 15200.

What about the Ka ([3]; deionized water, enthalpy 201.18 kJ/mol) of the same substance?
The Ka was 10500.
